# Assay results as given in US20190016789A1 (Janssen / Centocor, published 2019).
# T1: Tencon25
# T1 construct: Artificial FN3 domain (centyrin scaffold) with no target specificity; It was the immunogen; also called Tencon-T25
# T1 chain: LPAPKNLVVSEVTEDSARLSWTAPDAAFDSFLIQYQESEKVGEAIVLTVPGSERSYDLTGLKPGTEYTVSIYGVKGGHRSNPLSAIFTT
# T2: 83v2-ABD specific for human EGFR with an albumin binding domain
# T2 chain: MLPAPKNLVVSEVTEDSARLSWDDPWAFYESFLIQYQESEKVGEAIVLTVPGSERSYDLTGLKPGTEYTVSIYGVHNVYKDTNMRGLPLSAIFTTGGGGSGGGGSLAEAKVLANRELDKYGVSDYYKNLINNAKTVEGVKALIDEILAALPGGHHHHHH
# T3: FN3 domain A3 specific for human cMET
# T3 construct: it carries a C-terminal His tag
# T3 chain: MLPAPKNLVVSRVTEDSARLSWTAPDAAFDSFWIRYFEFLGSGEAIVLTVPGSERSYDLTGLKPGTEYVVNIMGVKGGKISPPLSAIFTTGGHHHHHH
# B1: AS7B91 scFv L-H CAR (scFv)
# chain: DVVMTQTPASVSGPVGGTVTIKCQASERIYSNLAWYQQKPGQPPKLLIYKASTLASGVSSRFKGSGSGTEFTLTIRDLECADAATYSCQYTSYGSGYVGTFGGGTEVVVEGGGGGSGGGGSGGGGSGGGGSLEESGGRLVTPGTPLTLTCTVSGIDLSTSVMGWVRQAPGKGLESIGFIYTNVNTYYASWAKGRFTISRTSTTVDLKITSPTTGDTATYFCARAVYAGAMDLWGQGTLVTVSSTTTPAPRPPTPAPTIASQPLSLRPEACRPAAGGAVHTRGLDFACDIYIWAPLAGTCGVLLLSLVITLYCKRGRKKLLYIFKQPFMRPVQTTQEEDGCSCRFPEEEEGGCELRVKFSRSADAPAYKQGQNQLYNELNLGRREEYDVLDKRRGRDPEMGGKPRRKNPQEGLYNELQKDKMAEAYSEIGMKGERRRGKGHDGLYQGLSTATKDTYDALHMQALPPR
# notes: Chimeric antigen receptor on mRNA-electroporated human pan T cells; also called BAR-T variant 1; AS7B91 L-H CAR ECD
# B2: AS7B16 scFv CAR, L-H orientation (scFv)
# chain: NIMMTQSPSSLAVSAGEKVTMNCKSSQSVLFGSKQKNYLAWYQQKPGQSPKLLIYWASTRESGVPDRFTGSGSGTDFILTISNVQAEDLAVYYCHQYLSLFTFGSGTKLEIKGGGGSGGGGSGGGGSGGGGSQVTLKESGPGILQPSQTLSLTCSFSGFSLNTSGTGVGWIRQPSGKGLEWLAHIWWDDDKGYNPALKSRLTISKNTSSNLVFLKIASVDTADTATYYCVRIKGRMDYWGQGTSVTVSSTTTPAPRPPTPAPTIASQPLSLRPEACRPAAGGAVHTRGLDFACDIYIWAPLAGTCGVLLLSLVITLYCKRGRKKLLYIFKQPFMRPVQTTQEEDGCSCRFPEEEEGGCELRVKFSRSADAPAYKQGQNQLYNELNLGRREEYDVLDKRRGRDPEMGGKPRRKNPQEGLYNELQKDKMAEAYSEIGMKGERRRGKGHDGLYQGLSTATKDTYDALHMQALPPR
# notes: Chimeric antigen receptor on mRNA-electroporated human pan T cells; also called AS7B16 L2H; AS7B16 L-H CAR ECD
# B3: AS7B90 (antibody, rat IgG1)
# heavy: QSLEESGGRLVTPGTPLTLTCTVSGIDLSTSVMGWVRQAPGKGLESIGFIYTNVNTYYASWAKGRFTISRTSTTVDLKITSPTTGDTATYFCARAVYAGAMDLWGQGTLVTVSSAETTAPSVYPLAPGTALKSNSMVTLGCLVKGYFPEPVTVTWNSGALSSGVHTFPAVLQSGLYTLTSSVTVPSSTWPSQTVTCNVAHPASSTKVDKKIVPRNCGGDCKPCICTGSEVSSVFIFPPKPKDVLTITLTPKVTCVVVDISQDDPEVHFSWFVDDVEVHTAQTRPPEEQFNSTFRSVSELPILHQDWLNGRTFRCKVTSAAFPSPIEKTISKPEGRTQVPHVYTMSPTKEEMTQNEVSITCMVKGFYPPDIYVEWQMNGQPQENYKNTPPTMDTDGSYFLYSKLNVKKEKWQQGNTFTCSVLHEGLHNHHTEKSLSHSPGK
# light: DVVMTQTPASVSGPVGGTVTIKCQASERIYSNLAWYQQKPGQPPKLLIYKASTLASGVSSRFKGSGSGTEFTLTIRDLECADAATYSCQYTSYGSGYVGTFGGGTEVVVEGRADAAPTVSIFPPSSEQLASGGASVVCFINKFYPKDISVKWKIDGSERQNDVLNSVTDQDSKDSTYSMSSTLTLTKADYERHNLYTCEVVHKTSASPVVKSFNRNEC
# B4: AS7B16 scFv CAR, H-L orientation (scFv)
# chain: QVTLKESGPGILQPSQTLSLTCSFSGFSLNTSGTGVGWIRQPSGKGLEWLAHIWWDDDKGYNPALKSRLTISKNTSSNLVFLKIASVDTADTATYYCVRIKGRMDYWGQGTSVTVSSGGGGSGGGGSGGGGSGGGGSNIMMTQSPSSLAVSAGEKVTMNCKSSQSVLFGSKQKNYLAWYQQKPGQSPKLLIYWASTRESGVPDRFTGSGSGTDFILTISNVQAEDLAVYYCHQYLSLFTFGSGTKLEIKTTTPAPRPPTPAPTIASQPLSLRPEACRPAAGGAVHTRGLDFACDIYIWAPLAGTCGVLLLSLVITLYCKRGRKKLLYIFKQPFMRPVQTTQEEDGCSCRFPEEEEGGCELRVKFSRSADAPAYKQGQNQLYNELNLGRREEYDVLDKRRGRDPEMGGKPRRKNPQEGLYNELQKDKMAEAYSEIGMKGERRRGKGHDGLYQGLSTATKDTYDALHMQALPPR
# notes: Chimeric antigen receptor on mRNA-electroporated human pan T cells; also called AS7B16 H2L; AS7B16 H-L CAR ECD
# B5: AS7B91 scFv H-L CAR (scFv)
# chain: QSLEESGGRLVTPGTPLTLTCTVSGIDLSTSVMGWVRQAPGKGLESIGFIYTNVNTYYASWAKGRFTISRTSTTVDLKITSPTTGDTATYFCARAVYAGAMDLWGQGTLVTVSSGGGGSGGGGSGGGGSGGGGSDVVMTQTPASVSGPVGGTVTIKCQASERIYSNLAWYQQKPGQPPKLLIYKASTLASGVSSRFKGSGSGTEFTLTIRDLECADAATYSCQYTSYGSGYVGTFGGGTEVVVEGTTTPAPRPPTPAPTIASQPLSLRPEACRPAAGGAVHTRGLDFACDIYIWAPLAGTCGVLLLSLVITLYCKRGRKKLLYIFKQPFMRPVQTTQEEDGCSCRFPEEEEGGCELRVKFSRSADAPAYKQGQNQLYNELNLGRREEYDVLDKRRGRDPEMGGKPRRKNPQEGLYNELQKDKMAEAYSEIGMKGERRRGKGHDGLYQGLSTATKDTYDALHMQALPPR
# notes: Chimeric antigen receptor on mRNA-electroporated human pan T cells; also called BAR-T variant 2; AS7B91 H-L CAR ECD
# B6: AS7B91 (antibody, mouse IgG2a, kappa)
# heavy: QSLEESGGRLVTPGTPLTLTCTVSGIDLSTSVMGWVRQAPGKGLESIGFIYTNVNTYYASWAKGRFTISRTSTTVDLKITSPTTGDTATYFCARAVYAGAMDLWGQGTLVTVSSAKTTAPSVYPLAPVCGDTTGSSVTLGCLVKGYFPEPVTLTWNSGSLSSGVHTFPAVLQSDLYTLSSSVTVTSSTWPSQSITCNVAHPASSTKVDKKIEPRGPTIKPCPPCKCPAPNLLGGPSVFIFPPKIKDVLMISLSPIVTCVVVDVSEDDPDVQISWFVNNVEVHTAQTQTHREDYNSTLRVVSALPIQHQDWMSGKEFKCKVNNKDLPAPIERTISKPKGSVRAPQVYVLPPPEEEMTKKQVTLTCMVTDFMPEDIYVEWTNNGKTELNYKNTEPVLDSDGSYFMYSKLRVEKKNWVERNSYSCSVVHEGLHNHHTTKSFSRTPGK
# light: DVVMTQTPASVSGPVGGTVTIKCQASERIYSNLAWYQQKPGQPPKLLIYKASTLASGVSSRFKGSGSGTEFTLTIRDLECADAATYSCQYTSYGSGYVGTFGGGTEVVVEGRADAAPTVSIFPPSSEQLTSGGASVVCFLNNFYPKDINVKWKIDGSERQNGVLNSWTDQDSKDSTYSMSSTLTLTKDEYERHNSYTCEATHKTSTSPIVKSFNRNEC
# notes: also called a-Centyrin
# Experiments:
# Tencon25 [1] = target: T1, Tencon25; assay: flow cytometry on CAR-electroporated primary T cells, labeled Tencon25
# Tencon25 [2] = target: T1, Tencon25; assay: flow cytometry, CAR-electroporated T cells stained with 50 nM APC labeled Tencon-25
# Procedure: For AS7B16 and AS7B82, binding was assessed using flow cytometry. Briefly, Twenty-four hours post-electroporation, cells were centrifuged at 100×g for 10 minutes and washed two times in FACS stain buffer (BD Biosciences Catalog#554657). Cells were incubated with either APC labeled […] or AF647 labeled anti-EGFR 83v2 FN3 domains at a final concentration of 50 nM at 4° C. for 1 hour. The labeled cells were washed twice in FACS stain buffer and re-suspended in 200 uL of the same buffer. Data was collected using a BD LSRFortessa flow cytometer and analysis was performed using Flowjo software. All CARTs tested, AS7B16, AS7B82 and AS7B91 bind to both FN3 domains tested, Tencon-T25 and EGFR 83v2. Binding of CARTs occurs in the following manner: ASS7B91>AS7B82>AS7B16.
# Tencon25 [3] = target: T1, Tencon25; assay: ELISA, coated FN3 domain in dose-response, supernatant at 1 µg/ml, luminescence
# Procedure: (§1) Three plates were coated with dose-response curves of, FN3 domain A3 specific for human cMET (SEQ ID NO: 31), 83v2-ABD specific for human EGFR with an albumin binding domain (SEQ ID NO: 32), tencon 25 that has no specificity (SEQ ID NO: 28), or negative control protein, all at 50 μL/well in 50 mM PBS. Plates were incubated over night at 4° C. Supernatants were dumped from plates and 200 μL/well Superblock was added to block plates for 1 hour at RT. […] Plates were incubated for 1 hour at RT. Plates were washed 3× with TBS-T. Secondary antibodies (HRP-goat anti-rabbit, rat or mouse) were prepared at 1:10,000 in Superblock and added to the plates. Plates were incubated for 1 hour at RT. Plates were washed 3× with TBS-T. 50 μL/well POD reagent (prepared according to Sigma-Aldrich manufacturer's instructions and incubated in the dark at RT for at least 30 minutes prior to use) was added to plates. After 3-5 minute incubation, protected from light, the M5 was used to read luminescence. The results were plotted in Prism (FIGS. 1A-C) using a Log/Log transformation, and then a four-parameter curve fit. […] It should be noted that there was no non-specific binding to negative control antibody. The mouse version of the antibody, AS7B91, appeared to have binding characteristics more similar to the original rabbit hybridoma antibody.
# [4] = target: T2, 83v2-ABD specific for human EGFR with …; assay: as above
# Procedure: as §1
# [5] = target: T3, FN3 domain A3 specific for human cMET; assay: as above
# Procedure: as §1
# [6] = target: anti-BCMA CARTyrins expressed on the surface of primary T cells; assay: cell-based or functional assay
Binder,binding result (Tencon25 [1]),binding result (Tencon25 [2]),binding result (Tencon25 [3]),binding result [4],binding result [5],also measured
B1,binds,–,–,–,–,–
B2,–,binds,–,–,–,–
B3,–,–,binds,binds,binds,–
B4,–,binds,–,–,–,–
B5,binds,–,–,–,–,–
B6,–,–,binds,binds,binds,increase in cell number compared to unstimulated cells [6]: 11 fold
